Measurements from patent US20190127480A1.

How the values were obtained:
[1] = target: human CD3 expressed on cells (Jurkat cells; human T-cells of PBMC) (human) (UniProt P09693); experiment: cell-based or functional assay
[2] = target: human CD3 expressed on cells (Jurkat cells; human T-cells of PBMC) (human) (UniProt P09693); experiment: FACS titration on Jurkat cells (CD3+ human T-cell line)
[3] = target: cynomolgus monkey CD3 expressed on monkey T-cells (PBMCs) (cynomolgus monkey) (UniProt Q95LI5); experiment: FACS titration on monkey PBMCs, gated on CD2+CD4+ T cells
Chain of cynomolgus monkey CD3 expressed on monkey T-cells (PBMCs) (cynomolgus monkey) (Q95LI5 22-198, chain 1 of 2): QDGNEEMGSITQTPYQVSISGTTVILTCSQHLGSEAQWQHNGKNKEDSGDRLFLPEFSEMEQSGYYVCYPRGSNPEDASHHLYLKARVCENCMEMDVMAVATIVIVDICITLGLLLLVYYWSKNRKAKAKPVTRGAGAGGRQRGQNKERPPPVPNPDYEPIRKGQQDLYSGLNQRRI
Chain of cynomolgus monkey CD3 expressed on monkey T-cells (PBMCs) (cynomolgus monkey) (Q95LI8 22-171, chain 2 of 2, further chain): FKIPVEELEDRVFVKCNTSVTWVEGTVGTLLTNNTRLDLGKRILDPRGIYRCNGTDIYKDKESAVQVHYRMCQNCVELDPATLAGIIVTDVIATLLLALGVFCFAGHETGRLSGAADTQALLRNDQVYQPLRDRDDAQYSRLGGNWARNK

[4] = target: cynomolgus monkey CD3 expressed on monkey T-cells (PBMCs) (cynomolgus monkey) (UniProt Q95LI5); experiment: cell-based or functional assay

Chain of human CD3 expressed on cells (Jurkat cells; human T-cells of PBMC) (human) (chain, as listed by the source, chain 1 of 4): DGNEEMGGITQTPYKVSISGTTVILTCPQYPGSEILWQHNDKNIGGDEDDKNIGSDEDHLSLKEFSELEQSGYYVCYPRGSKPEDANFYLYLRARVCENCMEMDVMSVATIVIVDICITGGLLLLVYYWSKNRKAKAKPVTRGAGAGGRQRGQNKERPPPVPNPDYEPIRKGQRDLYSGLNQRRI
Chain of human CD3 expressed on cells (Jurkat cells; human T-cells of PBMC) (human) (chain, as listed by the source, chain 2 of 4): as the sequence (Q95LI8 22-171, chain 2 of 2, further chain) above, with V5I, K15N, V20I, T32S, N33D, N34I, A64T, N74S, L83V, R141H counted along it
Chain of human CD3 expressed on cells (Jurkat cells; human T-cells of PBMC) (human) (P09693 23-182, chain 3 of 4): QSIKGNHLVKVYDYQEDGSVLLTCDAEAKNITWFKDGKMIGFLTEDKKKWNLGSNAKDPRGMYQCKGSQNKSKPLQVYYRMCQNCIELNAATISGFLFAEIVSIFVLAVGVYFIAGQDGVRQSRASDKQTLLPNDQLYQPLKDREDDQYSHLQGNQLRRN
Chain of human CD3 expressed on cells (Jurkat cells; human T-cells of PBMC) (human) (P20963 22-164, chain 4 of 4): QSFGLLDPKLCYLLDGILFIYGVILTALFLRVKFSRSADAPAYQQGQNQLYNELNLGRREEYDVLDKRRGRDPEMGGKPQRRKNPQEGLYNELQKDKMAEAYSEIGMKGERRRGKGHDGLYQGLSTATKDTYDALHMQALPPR

Substance	U937 Cytotoxicity Human T-cells [1] [pM]	also measured
Isotype Ctrl (irrelevant isotype matched antibody, human Fc mAb tables)	0	
OKT-3, mouse monoclonal antibody against human T-cell surface antigens (ATCC CRL-8001)	2.35	EC50 [M] hPBMC Proliferation [1]: 3.3e-13 M; EC50 [2]: 0.196 nM
Isotype Ctrl (irrelevant isotype matched antibody, monovalent 1-arm mAb tables)	0	
Isotype Ctrl (irrelevant isotype matched antibody, hybridoma mAb table)	0	
SP34, commercially available mouse monoclonal antibody reactive against the epsilon chain of the T3 complex on human T lymphocyte cells		EC50 [3]: 0.0703 nM; EC50 [M] mfPBMC Proliferation [4]: 1.71e-12 M
